How the values were obtained:
[1] = target: β-barrel assembly machinery (BAM), five components BamA-E, inserted in nanodiscs (E. coli, UniProt P0A940 21-810; P77774 20-392; P0A903 25-344; P0AC02 20-245; P0A937 20-113); assay: cryo-EM structure; MBP-EspP (3.6 μM, from urea) folded in vitro overnight into BAM nanodiscs (1.8 μM) with SurA (25.2 μM) in 1x TBS with 1 M urea, then SEC (Superdex 200 Increase); 7.0 Å map; conditions: both partners purified
[2] = target: BamA (subunit of E. coli BAM) (E. coli, UniProt P0A940 21-810); assay: as above; conditions: both partners purified

B1: MBP-EspP (residues 748–1300 of EspP) with an N-terminal 6xHis tag (domain or fragment)
chain: SGMFSTSDISISGNLSMTGNPDKDNKFEPSIYLNDASYLLTDDSARLVAKNKASVVGDIHSTKSASIMFGHDESDLSQLSDRTSKGLALGLLGGFDVSYRGSVNAPSASATMNNTWWQLTGDSALKTLKSTNSMVYFTDSANNKKFHTLTVDELATSNSAYAMRTNLSESDKLEVKKHLSGENNILLVDFLQKPTPEKQLNIELVSAPKDTNENVFKASKQTIGFSDVTPVITTRETDDKITWSLTGYNTVANKEATRNAAALFSVDYKAFLNEVNNLNKRMGDLRDINGEAGAWARIMSGTGSASGGFSDNYTHVQVGVDKKHELDGLDLFTGFTVTHTDSSASADVFSGKTKSVGAGLYASAMFDSGAYIDLIGKYVHHDNEYTATFAGLGTRDYSTHSWYAGAEAGYRYHVTEDAWIEPQAELVYGSVSGKQFAWKDQGMHLSMKDKDYNPLIGRTGVDVGKSFSGKDWKVTARAGLGYQFDLLANGETVLRDASGEKRIKGEKDSRMLMSVGLNAEIRDNVRFGLEFEKSAFGKYNVDNAVNANFRYSF
notes: also called MBP-EspP substrate
[1]
  binding result: binds
[2]
  binding result: binds
